Experimental data reported in patent publication US7981863B2, “Treatment of Parkinson's disease with PDGF” (Neuronova AB, priority 2001, dated 2011).

Columns and labels:
[1] = test system: rat neural stem cells from the adult lateral ventricle wall; test: Expansion of rat neural stem cell cultures, total cell counts at 7 days; format: cell-based; conditions: different concentrations, 7 days; FIG. 24, FIG. 25
Method: Neural stem cells were prepared according to the attached protocol. Cells were grown in serum-free medium, subcloned and used between passage 6 and 10. If not otherwise mentioned the experiments consisted of triplets for analysis and were independently repeated at least 3 times.
Basal Medium: Neurobasal medium (NB, Gibco BRL) & B27 supplement (Gibco BRL).
Growth Medium: NB, B27 supplement+20 ng/ml of FGF-2 (R&D Systems)+20 ng/ml EGF (R&D Systems)+2 μg/ml heparin (Sigma, Germany).
Cells were plated in Growth medium at 10.000 cells/ml and after 2 days switched to the experimental condition. Cells were kept under the experimental condition for 7 days.
Adult female Fischer-344 rats (3-4 months; Charles River, Germany) were killed via cervical dislocation, the brains of each rat were removed and stored at 4° C. in DPBS (PAN, Germany) with 4.5 g/L glucose (Merck, Germany) (DPBS/glu). Overlying meninges and blood vessels were removed. Ependymal zone including subependymal/subventricular zone form the lateral wall of the lateral ventricle were aseptically removed. […] Live cells were counted by trypan blue exclusion assay in a hemocytometer. […]
The culture medium containing floating neurospheres was collected in a 15 ml centrifuge tube and centrifuged at 800 rpm. […] An aliquot was counted by trypan blue exclusion assay in a hemocytometer to determine the amount of live and dead cells. […]

Healthy Rats = test: ICV infusion in healthy rats, BrdU / NeuN labelling; format: in vivo, rat
Method: Male rats (12 hours light/dark regime; feeding and drinking ad libitum; 5 animals in standard cage) were infused (Alzet minipumps) in the left lateral ventricle with human recombinant PDGF-BB for 7 days at a daily dose of 36 ng/day (8 animals/group). Human recombinant BDNF (brain derived neurotrophic factor) was used as a positive control (Pencea V et al., J. Neurosci Sep. 1 (2001), 21(17):6706-17). Bromodeoxyuridine (BrdU) was also included in the infusion vehicle (artificial cerebrospinal fluid) to enable measurement of proliferation by quantitation of BrdU incorporation in the DNA. Animals were sacrificed at 7 (proliferation) or 28 days (neurogenesis) after start of treatment and brains were dissected and prepared for sectioning and immunohistochemistry (Pencea V et al., J. Neurosci Sep. 1 (2001), 21(17):6706-17).
Proliferation was measured by BrdU incorporation and diaminobenzidine (DAB) staining of HRP conjugated secondary antibodies (FIG. 7). Cells were counted in a phase contrast microscope. Neural phenotype was assessed by staining for neuronal marker NeuN by immunocytochemistry using a fluorescence readout. The secondary antibodies were labeled with FITC or Alexa Fluor568. In double staining analyses designed to measure neurogenesis, BrdU and NeuN were quantitated by fluorescence (above) and counting of cells was done in a confocal microscope. For further experimental details, see Pencea V et al., J. Neurosci Sep. 1 (2001), 21(17):6706-17. A number of brain regions were analysed.

6-OHDA Lesioned Rats = test: i.c.v. infusion in 6-OHDA lesioned rats, BrdU / NeuN labelling; format: in vivo, rat; conditions: for numbers of BrdU labelled cells in the denervated striatum: compared to PBS infusion
Method: Animal handling and surgical procedures were carried out according to the ethical and regulatory permits set forth by Jordbruksverket and Lund University. Adult female Sprague-Dawley rats (B&K Universal AB) rats weighing 220-250 g, were housed in pairs with a 12 h light-dark cycle with free access to food and water. To lesion the substantia nigra, rats were fixed into a stereotaxic frame and 6-OHDA ([…] in 0.02% ascorbate saline, Sigma) was injected at a rate of 1 μl/min in 2 deposits of 2 and 2.5 μl into the right ascending mesostriatal forebrain bundle at the following coordinates: 4.4 mm caudal to bregma, 1.2 mm lateral to midline, 7.8 mm below dura; 4.0 mm caudal, 0.8 mm lateral, 8.0 mm below dura, respectively (Paxinos and Watson, 1998). Three weeks after 6-OHDA injections, the completeness of the lesion was assessed with the amphetamine-induced rotation test. D-methylamphetamine (2.5 mg, i.p.) was injected 5 min prior to placing the rat in an automated rotormeter bowl that measured the number of rotations over 90 min.
Before implantation, an Alzet Model 2002 osmotic minipump (200 μl; flow rate: 0.5 μl/h, 12 μl/day) was prefilled with 200 μl of compound solution (see below) and placed in a NaCl (0.9%) solution warmed in water bath (37° C.) 36 hrs before implantation. Rats were anesthetized with halothane in a mixture of nitrous oxide/oxygen (70:30) and maintained with 2-3% halothane. For implantation, rats were placed in a stereotaxic frame and the cannula of the Alzet Brain Infusion kit II was placed into the right lateral ventricle (coordinates: AP=−0.3 mm posterior bregma, L=1.5 mm lateral to satura sagittalis, 4.5 mm the dura; Paxinos and Watson, 1998), and secured to the skull with screws and dental cement. The minipump was then placed subcutaneously in the mid-scapular region. The scalp was treated with lidocaine gel before suturing. Twelve days after insertion, the rats were briefly anaesthetized with halothane in order to remove the pump. Removed pumps had the remaining solution volume and weight recorded.
The effects of infused PDGF-BB and BDNF following 6-OHDA lesions were investigated at 2 different time points: at 12 days or 5 weeks after minipump insertion. Rats receiving human PDGF-BB (order # 220-BB-050; 50 μg, R&D Systems) each had 36 ng/d of PDGF dissolved in 0.1 M PBS (3 μg/ml). Rats receiving human recombinant BDNF (order # 248-BD-025; 25 μg, R&D Systems) each had 12 ng/d of BDNF dissolved in 0.1 M PBS (1 μg/ml). BrdU was co-administered with the compound solution in the minipumps by dissolving it into the 0.1 M PBS medium. Control rats received only BrdU/PBS infusions.
Brain tissue was obtained by anesthetizing the rat and transcardially perfusing with 0.9% saline followed by 4% paraformaldehyde (PFA). Brains were stored PFA for 2 hours, then transferred to 20% sucrose PBS and sectioned coronally on a sledge microtome at 30 μm thickness. Free-floating sections were stored in Walter's antifreeze solution at 4° C. until staining.
Following blocking, incubation of monoclonal rat anti-BrdU antibody (Harlan Sera Lab, UK) in 2% blocking solution occurred at a dilution of 1:100 at 4° C. for 36 hrs. The sections were then incubated with biotin-horse-[…] antibody (1:200) (Vector, CA) in 2% blocking solution for 2 hr and visualized with DAB-NiCl Vectastain Elite kit. The procedure for doubling labeling of BrdU with NeuN or TH was similar, except that a monoclonal rat anti-BrdU antibody (1:100; Sigma, Sweden) was incubated either with a monoclonal mouse anti-NeuN antibody (1:100; Chemicon, USA) or with a monoclonal anti-TH antibody (1:1000; Pelfreeze) in the appropriate 2% blocking solution in the dark for 36 to 48 hrs. For immunofluorescent visualization, sections were incubation in secondary antibodies: Cy3-conjugated donkey anti-rat (1:200; Jackson ImmunoResearch, PA) for BrdU; a biotinylated horse anti-mouse antibody (1:200; BA2001, Vector, CA) for NeuN; and a FITC-conjugated goat anti-rat (1:200;) for TH. […]

B1: VEGF-A121: VEGF isoform that can only bind to the Flk-1 receptor (protein)
chain: APMAEGGGQNHHEVVKFMDVYQRSYCHPIETLVDIFQEYPDEIEYIFKPSCVPLMRCGGCCNDEGLECVPTEESNITMQIMRIKPHQGQHIGEMSFLQHNKCECRPKKDRARQEKCDKPRR
[1]
  stimulation of proliferation of neural stem cell cultures: significant stimulation

B2: BDNF: Human recombinant BDNF (brain derived neurotrophic factor), used as a positive control (protein, UniProt P23560 19-247, looked up)
Neurotrophic factor BDNF …: APMKEANIRGQGGLAYPGVRTHGTLESVNGPKAGSRGLTSLADTFEHVIEELLDEDQKVRPNEENNKDADLYTSRVMLSSQVPLEPPLLFLLEEYKNYLDAANMSMRVRRHSDPARRGELSVCDSISEWVTAADKKTAVDMSGGTVTVLEKVPVSKGQLKQYFYETKCNPMGYTKEGCRGIDKRHWNSQCRTTQSYVRALTMDSKKRIGWRFIRIDTSCVCTLTIKRGR
Healthy Rats; 7-day group, ICV infusion 7 days, 36 ng/day, mean of two sections, mean +/- sem
  Cell count (BrdU, proliferation) along the lateral ventricle wall: 177 +/−15
Healthy Rats; 28-day group
  number of proliferating cells in the subventricular zone: slight effect
Healthy Rats; 28-day group, in comparison to vehicle treated animals
  neurogenesis in the striatum: significantly increase neurogenesis
Healthy Rats; 28-day group, in comparison to vehicle-treated animals
  BrdU positive cells in the dentate gyrus, the CA1 and the alveus: no significant effect
Healthy Rats; 28-day group, cells counted in 300 × 300 μm squares
  BrdU positive cells in the striatum: 39.8 ± 7.3 (p < 0.01 to vehicle, ANOVA)
6-OHDA Lesioned Rats; 5 weeks, FIG. 15
  absolute number of BrdU/NeuN double labelled cells in the striatum: significantly more neurons
6-OHDA Lesioned Rats; 12 days after infusion, PDGF 36 ng/d, BDNF 12 ng/d
  numbers of BrdU labelled cells in the denervated striatum: significantly elevated
6-OHDA Lesioned Rats; 12 days after infusion, compared to PBS treatment
  numbers of BrdU labelled cells in the lesioned substantia nigra: significantly elevated
6-OHDA Lesioned Rats; Week 5, no statistically significant differences
  BrdU cells in the striatum co-labelled with NeuN (proportion of newly generated neurons): 16.6%
6-OHDA Lesioned Rats; at 5 weeks
  numbers of BrdU labelled cells in the denervated striatum: significant increases

B3: VEGF-A165: VEGF isoform that can bind to flk-1, flt-1 and neuropilin-1 (protein)
chain: APMAEGGGQNHHEVVKFMDVYQRSYCHPIETLVDIFQEYPDEIEYIFKPSCVPLMRCGGCCNDEGLECVPTEESNITMQIMRIKPHQGQHIGEMSFLQHNKCECRPKKDRARQENPCGPCSERRKHLFVQDPQTCKCSCKNTDSRCKARQLELNERTCRCDKPRR
[1]
  stimulation of proliferation of neural stem cell cultures: significant stimulation
